Measured values: patent publication US20050282739A1 (PALATIN TECHNOLOGIES, published 2005)
Read-outs that look alike come from different tables or passages of the source. Each block holds one binder with its values, some of them ahead of it. Square brackets hold non-standard residues; d marks the D form. Ends that are not written are not given here. Nle = CCCC[C@H](N)C(=O)O

Assays:
[1] = target: T1, melanocortin-1 receptor (MC1-R) of B-16 mouse melanoma cells (mouse, UniProt Q01727 1-315); assay: 125I-NDP-α-MSH competition, B-16 membranes
T1 construct: whole, on cells; membranes prepared from the cells were used; also called Melanocortin Receptor 1
T1 sequence (Q01727 whole entry): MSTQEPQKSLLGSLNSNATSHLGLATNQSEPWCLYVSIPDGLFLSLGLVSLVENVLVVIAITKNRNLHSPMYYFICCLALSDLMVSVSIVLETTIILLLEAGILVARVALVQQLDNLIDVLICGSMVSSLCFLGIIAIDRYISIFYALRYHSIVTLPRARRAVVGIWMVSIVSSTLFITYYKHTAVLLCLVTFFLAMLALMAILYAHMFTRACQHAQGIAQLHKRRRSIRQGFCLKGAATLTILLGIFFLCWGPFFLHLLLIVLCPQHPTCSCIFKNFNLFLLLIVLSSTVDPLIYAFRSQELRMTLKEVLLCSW
Protocol: (§1) The competitive inhibition binding assay was conducted using membranes prepared from hMC3-R, hMC4-R, hMC5-R, and B-16 mouse melanoma cells (containing MC1-R) using 0.4 nM ¹²⁵I-NDP-alpha-MSH (New England Nuclear, Boston, Mass., USA) in 50 mM HEPES buffer containing 1 mM MgCl₂, 2 mM CaCl₂, and 5 mM KCl, at pH 7.2. […] Incubation was for 90 minutes at room temperature, after which the assay mixture was filtered and the membranes washed three times with ice cold buffer. The filter was dried and counted in a gamma counter for remaining radioactivity bound to the membranes. 100% specific binding was defined as the difference in radioactivity (cpm) bound to cell membranes in the absence and presence of 1 μM α-MSH. […] Each assay was conducted in triplicate and the actual mean valves are described.

[2] = target: T2, human melanocortin-3 receptor (hMC3-R) (human, UniProt P41968 1-323); assay: 125I-NDP-α-MSH competition, hMC3-R membranes
T2 construct: whole, on cells; membranes prepared from hMC3-R cells were used; also called Melanocortin Receptor 3
T2 sequence (P41968 whole entry): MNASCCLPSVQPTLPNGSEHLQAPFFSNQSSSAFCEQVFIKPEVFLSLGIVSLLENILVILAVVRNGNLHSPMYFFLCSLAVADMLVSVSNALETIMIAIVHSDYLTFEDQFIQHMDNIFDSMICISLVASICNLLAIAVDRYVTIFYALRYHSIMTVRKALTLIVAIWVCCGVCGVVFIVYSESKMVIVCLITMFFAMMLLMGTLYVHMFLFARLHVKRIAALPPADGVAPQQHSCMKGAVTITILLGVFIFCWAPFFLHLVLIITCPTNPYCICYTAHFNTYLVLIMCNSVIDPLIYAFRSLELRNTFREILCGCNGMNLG
Protocol: as §1

[3] = target: T3, human melanocortin-4 receptor (hMC4-R) (human, UniProt P32245 1-332); assay: 125I-NDP-α-MSH competition, hMC4-R membranes
T3 construct: whole, on cells; membranes prepared from hMC4-R cells were used; also called Melanocortin Receptor 4
T3 sequence (P32245 whole entry): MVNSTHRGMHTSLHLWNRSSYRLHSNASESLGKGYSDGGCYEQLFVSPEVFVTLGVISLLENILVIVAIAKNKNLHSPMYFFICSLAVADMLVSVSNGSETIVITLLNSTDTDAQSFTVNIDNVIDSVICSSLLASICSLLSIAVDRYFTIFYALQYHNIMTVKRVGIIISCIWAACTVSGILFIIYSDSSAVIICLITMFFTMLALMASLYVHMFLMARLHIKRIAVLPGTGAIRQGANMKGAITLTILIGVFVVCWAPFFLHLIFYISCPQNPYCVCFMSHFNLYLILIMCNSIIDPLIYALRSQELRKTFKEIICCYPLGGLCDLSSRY
Protocol: as §1

[4] = target: T4, human melanocortin-5 receptor (hMC5-R) (human, UniProt P33032 1-325); assay: 125I-NDP-α-MSH competition, hMC5-R membranes
T4 construct: whole, on cells; membranes prepared from hMC5-R cells were used; also called Melanocortin Receptor 5
T4 sequence (P33032 whole entry): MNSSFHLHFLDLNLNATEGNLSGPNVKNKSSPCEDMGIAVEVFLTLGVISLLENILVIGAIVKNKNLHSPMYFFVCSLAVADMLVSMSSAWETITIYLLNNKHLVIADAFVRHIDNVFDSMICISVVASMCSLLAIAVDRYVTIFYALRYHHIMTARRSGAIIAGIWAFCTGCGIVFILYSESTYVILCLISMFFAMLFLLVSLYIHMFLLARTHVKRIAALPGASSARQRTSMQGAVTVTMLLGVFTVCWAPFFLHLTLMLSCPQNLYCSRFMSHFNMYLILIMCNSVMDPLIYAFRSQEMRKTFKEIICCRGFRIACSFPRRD
Protocol: as §1

[5] = target: T1, melanocortin-1 receptor (MC1-R) of B-16 …; assay: 125I-NDP-α-MSH competition, B-16 membranes; remark: listed apart in the source
Protocol: as §1
(§2) The first unnumbered peptide in Table 3 is the parent polypeptide, which is a Nle³, D-Phe⁶ substituted γ-MSH analog specific for melanocortin receptors. The methods and assays set forth in Example 1 were followed.

[6] = target: T2, human melanocortin-3 receptor (hMC3-R); assay: 125I-NDP-α-MSH competition, hMC3-R membranes; remark: listed apart in the source
Protocol: as §1, §2

[7] = target: T3, human melanocortin-4 receptor (hMC4-R); assay: 125I-NDP-α-MSH competition, hMC4-R membranes; remark: listed apart in the source
Protocol: as §1, §2

[8] = target: T4, human melanocortin-5 receptor (hMC5-R); assay: 125I-NDP-α-MSH competition, hMC5-R membranes; remark: listed apart in the source
Protocol: as §1, §2

[9] = target: T1, melanocortin-1 receptor (MC1-R) of B-16 …; assay: 125I-NDP-α-MSH competition, B-16 membranes; remark: listed apart in the source
Protocol: as §1
(§3) The first unnumbered peptide in Table 5 is the parent polypeptide, which is a γ-MSH analog specific for melanocortin receptors. The methods and assays set forth in Example 1 were followed.

[10] = target: T2, human melanocortin-3 receptor (hMC3-R); assay: 125I-NDP-α-MSH competition, hMC3-R membranes; remark: listed apart in the source
Protocol: as §1, §3

[11] = target: T3, human melanocortin-4 receptor (hMC4-R); assay: 125I-NDP-α-MSH competition, hMC4-R membranes; remark: listed apart in the source
Protocol: as §1, §3

[12] = target: T4, human melanocortin-5 receptor (hMC5-R); assay: 125I-NDP-α-MSH competition, hMC5-R membranes; remark: listed apart in the source
Protocol: as §1, §3

% Inhibition at 1 µM [1]: 95%
% Inhibition at 1 µM [2]: 48%
% Inhibition at 1 µM [3]: 63%
% Inhibition at 1 µM [4]: 68%
Binder: Ac-SYS[Nle]EHFRWGKGVC-NH2 (not fully specified; also: oxorhenium(V) N3S1 chelate at Cys14) [metallopeptide 1-1]

% Inhibition at 1 µM [5]: 83%
% Inhibition at 1 µM [6]: 45%
% Inhibition at 1 µM [7]: 33%
% Inhibition at 1 µM [8]: 81%
B1: metallopeptide 3-5 (peptide)
peptide: YV[Nle]GH[dF]RCWDRF-NH2
modifications: not fully specified (bridges); printed as Tyr-Val-Nle-Gly-His-D-Phe-Arg-Cys-Trp-Asp-Arg-Phe-NH2; also: bridge at 8 via Re(V)=O, other end not in the chain

% Inhibition at 1 µM [1]: 96%
% Inhibition at 1 µM [2]: 15%
% Inhibition at 1 µM [3]: 26%
% Inhibition at 1 µM [4]: 19%
Binder: Ac-SYCS[Nle]EHFRWGKPV-NH2 (also: oxorhenium(V) N3S1 chelate at Cys3) [metallopeptide 1-12]

% Inhibition at 1 µM [1]: 74%
% Inhibition at 1 µM [2]: 0%
% Inhibition at 1 µM [4]: 6%
Binder: Ac-SYS[Nle]ECHFRWGKPV-NH2 (also: oxorhenium(V) N3S1 chelate at Cys6) [metallopeptide 1-9]

% Inhibition at 1 µM [5]: 99%
% Inhibition at 1 µM [6]: 95%
% Inhibition at 1 µM [7]: 99%
% Inhibition at 1 µM [8]: 99%
B2: metallopeptide 3-3 (peptide)
peptide: YV[Nle]GH[dF]RWDCRF-NH2
modifications: not fully specified (bridges); printed as Tyr-Val-Nle-Gly-His-D-Phe-Arg-Trp-Asp-Cys-Arg-Phe-NH2; also: oxorhenium(V) N3S1 chelate (backbone N of W8, D9, C10 and C10 S)

% Inhibition at 1 µM [1]: 87%
% Inhibition at 1 µM [2]: 0%
% Inhibition at 1 µM [3]: 0%
% Inhibition at 1 µM [4]: 12%
Binder: Ac-SYS[Nle]EHFRWGKCPV-NH2 (also: oxorhenium(V) N3S1 chelate at Cys12) [metallopeptide 1-3]

% Inhibition at 1 µM [1]: 87%
% Inhibition at 1 µM [3]: 0%
% Inhibition at 1 µM [4]: 37%
Binder: Ac-SYS[Nle]EHFRWGKGCV-NH2 (also: oxorhenium(V) N3S1 chelate at Cys13) [metallopeptide 1-2]

% Inhibition at 1 µM [1]: 68%
% Inhibition at 1 µM [2]: 0%
% Inhibition at 1 µM [3]: 0%
% Inhibition at 1 µM [4]: 0%
Binder: Ac-SYS[Nle]EHFCRWGKPV-NH2 (also: oxorhenium(V) N3S1 chelate at Cys8) [metallopeptide 1-7]

% Inhibition at 1 µM [5]: 98%
% Inhibition at 1 µM [6]: 88%
% Inhibition at 1 µM [7]: 94%
% Inhibition at 1 µM [8]: 100%
B3: metallopeptide 3-4 (peptide)
peptide: YV[Nle]GH[dF]RWCDRF-NH2
modifications: not fully specified (bridges); printed as Tyr-Val-Nle-Gly-His-D-Phe-Arg-Trp-Cys-Asp-Arg-Phe-NH2; also: oxorhenium(V) N3S1 chelate (backbone N of R7, W8, C9 and C9 S)

% Inhibition at 1 µM [5]: 95%
% Inhibition at 1 µM [6]: 96%
% Inhibition at 1 µM [7]: 98%
% Inhibition at 1 µM [8]: 102%
Binder: YVXGHFRWDRFC (Nle 3 (X in letters); D-Phe 6; C-terminal amide; Re complexed at Cys 12) [metallopeptide 3-1]

% Inhibition at 1 µM [9]: 101%
% Inhibition at 1 µM [10]: 92%
% Inhibition at 1 µM [11]: 95%
% Inhibition at 1 µM [12]: 98%
B4: metallopeptide 5-1 (peptide)
peptide: YV[Nle]GH[dF]RWDRC-NH2
modifications: also: oxorhenium(V) N3S1 chelate: C11 SG + backbone N of D9, R10, C11, bridge at 11 via Re(V)=O, other end not in the chain

% Inhibition at 1 µM [5]: 52%
% Inhibition at 1 µM [6]: 20%
% Inhibition at 1 µM [7]: 31%
% Inhibition at 1 µM [8]: 31%
B5: metallopeptide 3-6 (peptide)
peptide: YV[Nle]GH[dF]CRWDRF-NH2
modifications: not fully specified (bridges); printed as Tyr-Val-Nle-Gly-His-D-Phe-Cys-Arg-Trp-Asp-Arg-Phe-NH2; also: bridge at 7 via Re(V)=O, other end not in the chain

% Inhibition at 1 µM [1]: 57%
% Inhibition at 1 µM [2]: 0%
% Inhibition at 1 µM [3]: 0%
% Inhibition at 1 µM [4]: 0%
Binder: Ac-SYS[Nle]EHFRWCGKPV-NH2 (also: oxorhenium(V) N3S1 chelate at Cys10) [metallopeptide 1-5]

% Inhibition at 1 µM [5]: 84%
% Inhibition at 1 µM [6]: 78%
% Inhibition at 1 µM [7]: 80%
% Inhibition at 1 µM [8]: 86%
Binder: YV[Nle]CGH[dF]RWDRF-NH2 (also: Re(V)=O N3S1 chelate via V2 N, Nle3 N, Cys4 N and S (ReOCl3(PPh3)2)) [metallopeptide 3-10]

% Inhibition at 1 µM [1]: 95%
% Inhibition at 1 µM [2]: 18%
% Inhibition at 1 µM [3]: 21%
% Inhibition at 1 µM [4]: 6%
Binder: Ac-SYSC[Nle]EHFRWGKPV-NH2 (also: oxorhenium(V) N3S1 chelate at Cys4) [metallopeptide 1-11]

% Inhibition at 1 µM [1]: 72%
% Inhibition at 1 µM [2]: 0%
% Inhibition at 1 µM [4]: 5%
Binder: Ac-SYS[Nle]CEHFRWGKPV-NH2 (also: oxorhenium(V) N3S1 chelate at Cys5) [metallopeptide 1-10]

% Inhibition at 1 µM [1]: 29%
% Inhibition at 1 µM [2]: 0%
% Inhibition at 1 µM [3]: 0%
% Inhibition at 1 µM [4]: 0%
Binder: Ac-SYS[Nle]EHFRCWGKPV-NH2 (also: oxorhenium(V) N3S1 chelate at Cys9) [metallopeptide 1-6]

% Inhibition at 1 µM [5]: 95%
% Inhibition at 1 µM [6]: 85%
% Inhibition at 1 µM [7]: 82%
% Inhibition at 1 µM [8]: 92%
B6: metallopeptide 3-11 (peptide)
peptide: YVC[Nle]GH[dF]RWDRF-NH2
modifications: bridge (positions not given here); not fully specified (bridges); printed as Tyr-Val-Cys-Nle-Gly-His-D-Phe-Arg-Trp-Asp-Arg-Phe-NH2.; also: oxorhenium(V) N3S1 complex

% Inhibition at 1 µM [5]: 77%
% Inhibition at 1 µM [6]: 69%
% Inhibition at 1 µM [7]: 55%
% Inhibition at 1 µM [8]: 67%
B7: metallopeptide 3-9 (peptide)
peptide: YV[Nle]GCH[dF]RWDRF-NH2
modifications: also: oxorhenium(V) N3S1 chelate: C5 SG + backbone N of X3, G4, C5, bridge at 5 via Re(V)=O, other end not in the chain

% Inhibition at 1 µM [5]: 99%
% Inhibition at 1 µM [6]: 91%
% Inhibition at 1 µM [7]: 89%
% Inhibition at 1 µM [8]: 100%
B8: metallopeptide 3-2 (peptide)
peptide: YV[Nle]GH[dF]RWDRCF-NH2
modifications: not fully specified (bridges); printed as Tyr-Val-Nle-Gly-His-D-Phe-Arg-Trp-Asp-Arg-Cys-Phe-NH2; also: oxorhenium(V) N3S1 chelate (backbone N of D9, R10, C11 and C11 S)
